Laboratory results published in paper PMC6344880.

Biological target: 40S subunits of uS9/S16-R143G, uS9/S16-R143E and uS9/S16-R144 strains (S. cerevisiae)
Assay: co-sedimentation + cross-linking; formaldehyde cross-linking, whole cell extracts resolved on 10–30% sucrose gradients, Western blot of the 43/48S PIC (40S) fractions for eIF1, eIF2α and uS7, signals normalised to uS7; also in strains carrying the TIF5-G31R allele (Figure 6A), which reversed the accumulation of eIF2

fold increase of association against the wild-type strain: 2.5 to 3 fold
Substance: eukaryotic initiation factor 1 (eIF1) (from UniProt P32911 1-108) (natural protein)
